Drawing on article PMC7495468, this text covers stoichiometry N for one substance.

The target of this assay is HKU1-A HE ectodomain (human coronavirus HKU1 haemagglutinin-esterase, type A) (human coronavirus HKU1 (type A)). In words: […] (4 mg/ml; SEC buffer 10 mM Tris-HCl pH 8, 50 mM NaCl), […].

“HKU1-A HE ectodomain (human coronavirus HKU1 haemagglutinin-esterase, type A) (domain or fragment)” showed a stoichiometry N of 2.
